{
  "source": "paper PMC3285612",
  "key": {"[1]": {"molecular_target": "activated coagulation factor X (FXa), human (human)"}, "[2]": {"molecular_target": "activated coagulation factor X (FXa), human (human)", "assay": "enzyme inhibition assay (Ki from IC50 by Cheng and Prusoff); rSimukunin titrated against a constant concentration of enzyme, pre-incubated 5 min, fluorogenic peptidyl substrate 250 µM, 30°C; Ki calculated from the IC50 and the substrate's Km; estimated"}},
  "data": [
    {"binder": "recombinant Simukunin (rSV-66) (natural protein) QENVCNLPVDEGVCRALFKRFYYEPATDSCKEFYYGGCEGNGNRFKSKKECILKCQKNKQLIKTRKRKPKKTTKPPIPIISLD", "values": [
      {"measurement": "IC50 of inhibition of enzyme activity (fluorogenic peptidyl substrate, 250 µM); Factor Xa 0.1 nM", "setting": "[1]", "result": 5.2, "unit": "nM"},
      {"measurement": "Ki", "setting": "[2]", "result": 2.1, "unit": "nM"}
    ]}
  ]
}
